How the values were obtained:
[1] = system: O=C(CO)[C@@H](O)[C@H](O)[C@H](O)COP(=O)(O)O; test: purified protein; conditions: TPP, Mg2+ donor substrate; substrate cleft
[2] = system: O=C(CO)[C@@H](O)[C@H](O)COP(=O)(O)O; test: purified protein; conditions: TPP, Mg2+ donor substrate; substrate cleft
[3] = system: O=C[C@H](O)[C@H](O)[C@H](O)COP(=O)(O)O; test: purified protein; conditions: TPP, Mg2+ acceptor substrate; substrate cleft
[4] = target: the molecule itself; test: crystal structure; TBTKT with TPP and Mg2+, space group P1, four molecules (two dimers) in the asymmetric unit, 2.5 Å; crystals from 0.1 M ammonium acetate, 0.1 M bis-tris pH 5.5, 17% w/v PEG 10 000, 22°C

“transketolase (TBTKT) (Mycobacterium tuberculosis H37Rv)” gave a Km [1] of 630 ± 90 µM, a Km [2] of 350 ± 120 µM and a Km [3] of 820 ± 120 µM.

B1: transketolase from Mycobacterium tuberculosis (TBTKT) (enzyme)
chain: MTTLEEISALTRPRHPDYWTEIDSAAVDTIRVLAADAVQKVGNGHPGTAMSLAPLAYTLFQRTMRHDPSDTHWLGRDRFVLSAGHSSLTLYIQLYLGGFGLELSDIESLRTWGSKTPGHPEFRHTPGVEITTGPLGQGLASAVGMAMASRYERGLFDPDAEPGASPFDHYIYVIASDGDIEEGVTSEASSLAAVQQLGNLIVFYDRNQISIEDDTNIALCEDTAARYRAYGWHVQEVEGGENVVGIEEAIANAQAVTDRPSFIALRTVIGYPAPNLMDTGKAHGAALGDDEVAAVKKIVGFDPDKTFQVREDVLTHTRGLVARGKQAHERWQLEFDAWARREPERKALLDRLLAQKLPDGWDADLPHWEPGSKALATRAASGAVLSALGPKLPELWGGSADLAGSNNTTIKGADSFGPPSISTKEYTAHWYGRTLHFGVREHAMGAILSGIVLHGPTRAYGGTFLQFSDYMRPAVRLAALMDIDTIYVWTHDSIGLGEDGPTHQPIEHLSALRAIPRLSVVRPADANETAYAWRTILARRNGSGPVGLILTRQGVPVLDGTDAEGVARGGYVLSDAGGLQPGEEPDVILIATGSEVQLAVAAQTLLADNDILARVVSMPCLEWFEAQPYEYRDAVLPPTVSARVAVEAGVAQCWHQLVGDTGEIVSIEHYGESADHKTLFREYGFTAEAVAAAAERALDN
notes: also called Rv1449; rv1449c gene product
B1 was tested, and the “stoichiometry N” value [4] was 2.

Source: paper PMC3352088, “Structure and function of the transketolase from Mycobacterium tuberculosis and comparison with the human enzyme” (Open Biology, 2012)
